# Results published in patent CN116751285A (UNIV HEBEI NORMAL, dated 2023).
# B1: VHH-A35R纳米抗体 (VHH)
# VHH: AVQLVESGGGLAQTGGSLRLSCAASGRAFRDYAMAWFRQAPGKEREFVAAVSKTGYAIRYEDSVKGRFTISRDNAKNTVSLQMASLKVEDTAVYYCAADRTHRLGYSLRVDPLGYDDWGQGTQVTVSS
# Target: BSA (UniProt P02769 25-607)
# Assay: indirect ELISA, protein coated, anti-6xHis detection, OD450
# Sequence of BSA (P02769 25-607 limits assumed): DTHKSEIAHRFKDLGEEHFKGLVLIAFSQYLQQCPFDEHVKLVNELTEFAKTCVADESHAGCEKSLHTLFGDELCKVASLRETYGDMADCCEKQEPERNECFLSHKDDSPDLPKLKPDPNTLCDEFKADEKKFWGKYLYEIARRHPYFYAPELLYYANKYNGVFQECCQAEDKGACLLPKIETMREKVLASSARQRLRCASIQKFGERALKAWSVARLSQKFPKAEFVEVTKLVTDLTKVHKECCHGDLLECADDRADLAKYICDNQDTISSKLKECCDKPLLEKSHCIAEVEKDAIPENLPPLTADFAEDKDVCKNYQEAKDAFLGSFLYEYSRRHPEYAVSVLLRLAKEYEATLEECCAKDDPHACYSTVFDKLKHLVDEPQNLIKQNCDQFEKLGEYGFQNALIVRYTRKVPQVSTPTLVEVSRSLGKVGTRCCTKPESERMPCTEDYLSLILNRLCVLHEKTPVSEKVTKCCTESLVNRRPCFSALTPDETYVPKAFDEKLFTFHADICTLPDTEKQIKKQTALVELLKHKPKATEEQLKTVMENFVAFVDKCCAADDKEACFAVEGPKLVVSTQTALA
binder,measurement,value
B1,binding result,no binding
